Assay results: patent US7335722 (FOOD INDUSTRY RESEARCH AND DEVELOPMENT INSTITUTE, dated 2008)

T1: Angiotensin converting enzyme (ACE)
T1 sequence (F1RRW5 whole entry, species assumed, looked up): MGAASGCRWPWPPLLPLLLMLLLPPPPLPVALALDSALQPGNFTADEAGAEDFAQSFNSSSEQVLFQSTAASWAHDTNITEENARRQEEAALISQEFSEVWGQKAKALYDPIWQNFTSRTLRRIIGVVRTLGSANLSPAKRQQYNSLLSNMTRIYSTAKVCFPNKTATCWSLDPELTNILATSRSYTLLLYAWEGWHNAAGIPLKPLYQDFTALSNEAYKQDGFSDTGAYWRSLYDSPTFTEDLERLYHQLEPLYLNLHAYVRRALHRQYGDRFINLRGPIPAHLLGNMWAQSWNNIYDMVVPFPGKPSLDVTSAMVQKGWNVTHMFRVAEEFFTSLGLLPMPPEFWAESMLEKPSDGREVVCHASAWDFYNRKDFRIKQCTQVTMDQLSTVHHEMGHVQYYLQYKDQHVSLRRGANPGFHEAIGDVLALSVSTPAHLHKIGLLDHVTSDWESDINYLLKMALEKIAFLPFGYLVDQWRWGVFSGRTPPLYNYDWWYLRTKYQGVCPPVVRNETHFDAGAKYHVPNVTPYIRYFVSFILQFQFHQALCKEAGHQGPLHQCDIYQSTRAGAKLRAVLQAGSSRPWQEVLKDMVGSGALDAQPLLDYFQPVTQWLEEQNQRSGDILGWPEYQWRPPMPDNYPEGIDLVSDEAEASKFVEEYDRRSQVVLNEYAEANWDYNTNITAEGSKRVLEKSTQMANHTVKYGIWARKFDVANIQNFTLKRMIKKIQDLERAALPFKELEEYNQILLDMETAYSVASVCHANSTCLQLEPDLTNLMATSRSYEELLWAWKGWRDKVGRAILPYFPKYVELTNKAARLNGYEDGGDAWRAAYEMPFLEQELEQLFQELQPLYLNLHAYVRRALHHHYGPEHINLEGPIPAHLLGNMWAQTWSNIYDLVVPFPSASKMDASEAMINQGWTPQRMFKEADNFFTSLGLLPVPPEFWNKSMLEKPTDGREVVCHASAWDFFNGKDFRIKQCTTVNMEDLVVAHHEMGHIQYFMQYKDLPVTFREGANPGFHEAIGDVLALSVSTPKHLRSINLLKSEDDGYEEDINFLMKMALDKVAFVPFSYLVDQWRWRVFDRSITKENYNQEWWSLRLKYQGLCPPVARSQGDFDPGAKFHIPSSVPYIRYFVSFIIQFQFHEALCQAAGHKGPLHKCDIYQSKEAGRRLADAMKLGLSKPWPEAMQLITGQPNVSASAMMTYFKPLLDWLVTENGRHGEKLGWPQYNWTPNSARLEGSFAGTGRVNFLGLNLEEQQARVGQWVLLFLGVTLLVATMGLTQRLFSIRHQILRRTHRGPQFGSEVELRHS


Target: T1, Angiotensin converting enzyme (ACE)
Assay: cell-based or functional assay

Binder	ACE inhibitory activity (IC50) [µM]
ILPP [Ile-Leu-Pro-Pro (ILPP)]	172
VLPP [Val-Leu-Pro-Pro (VLPP)]	97
